Substitutions are numbered along the chain they refer to.
B1: H1M7789N (antibody, mouse IgG1, V domains shown)
VH: EVQLLESGGGLVQPGGSLRLSCSASGFTFSSYTMNWVRQAPGKGLEWVSGISDTGGNTYYTDSVKGRFTVSRDNSKNTLSLQMNSLRAEDTAVYYCAKDQGGSYPYYFHYWGQGSLVTVSS
VL: DIQMTQSPSSLSASVGDRVTITCRASQSISSYLIWYQQKPGTAPKFLIYAASSLQSGVPSRFSGCGSGTDFTLTISSLQPEDFATYYCQQSYSTPPITFGQGTRLEIK
B2: H2aM7780N (antibody, mouse IgG2a, V domains shown)
VH: QVQLVESGGGVVQSGRSLRLSCAASGFTFSSYGMHWVRQAPGKGLEWVAVIWYDGSNIYYSDSVKGRFTISRANSKNTLYLQMNSLRAEDTAVYYCARPGHWNYFFEYWGQGTLVTVSS
VL: B1 VL with S30N, S31N, I34N, T42K, F46L, A50T, C65S, I97L, R104Q
B3: H2aM7791N (antibody, mouse IgG2a, V domains shown)
VH: QMQLQQWGAGLLKPSETLSLTCVVYGGSLNGYYWSWIRQSPGKGLEWIGEIDHSGSTNYNPSLKNRVTMSVDTSKIQFSLKLTSVTVADTAVYYCAREGLLPFDYWGQGTLVTVSS
VL: EIVLTQSPGTLSLSPGERVTLSCRASQSVYSNYLAWYQQNPGQAPRLLIYAASNRATGIPDRFSGSGSGTDFTLTISRLEPEDFAVYYCHQYATSPWTFGQGTKVEIK
B4: H2aM7795N (antibody, mouse IgG2a, V domains shown)
VH: EVQVVESGGGLVEPGRSLRLSCKASGFTFDDYAMHWVRQTPGKALEWVSGINWSGNNIGYADSVKGRFTISKDDAKNSLYLQMNSLRPEDTALYYCTKDISITGTLDAFDVWGQGTMVTVSS
VL: DIQMTQSPISVSASVGDRVTITCRASQGISNWLAWYQQKPGIAPKLLIYSASSLQSGVPSRFRGSGSGTDFTLTIGSLQPEDFATYYCQQAHSFPLTFGGGTKVEIK
B5: H2aM7796N (antibody, mouse IgG2a, V domains shown)
VH: QVQLVESGGGVVQPGRSLRLSCAASGFTFSSYGMHWVRQAPGKGLEWVAIIWSDGDSEYNLDSVKGRFTISRDNSKNTLYLQMNSLRVEDSAVYYCARDRDLEDIWGQGTMVTVSS
VL: DIQMTQSPSSLSASVGDRVTITCRASQGIRNDLGWYQQKPGKAPKRLIYAASNLQSGVPSRFSGSGSGTEFTLTISSLQPEDFATYYCLQHNSYPLTFGGGTKVEIK
B6: H2aM7798N (antibody, mouse IgG2a, V domains shown)
VH: EVQLLESGGVLVQPGGSLRLSCAASGFTFSNFGMTWVRQAPGKGLEWVSGISGGGRDTYFADSVKGRFTISRDNSKNTLYLQMNSLKGEDTAVYYCVKWGNIYFDYWGQGTLVTVSS
VL: DIQMTQSPSSLSASVGDSITITCRASLSINTFLNWYQQKPGKAPNLLIYAASSLHGGVPSRFSGSGSGTDFTLTIRTLQPEDFATYYCQQSSNTPFTFGPGTVVDFR
B7: H4H7795N2 (antibody, human IgG4 S228P, kappa, V domains shown)
VH: B4 VH with N52S
VL: DIQMTQSPISVSASVGDRVTITCRASQGISNWLAWYQQKPGIAPKLLIYSASSLQSGVPSRFRGSGSGTDFTLTIGSLQPEDFATYYCQQAHSFPLTFGGGTKVEIKR
B8: H4H7798N (antibody, human IgG4 S228P, kappa, V domains shown)
VH: B6 VH
VL: DIQMTQSPSSLSASVGDSITITCRASLSINTFLNWYQQKPGKAPNLLIYAASSLHGGVPSRFSGSGSGTDFTLTIRTLQPEDFATYYCQQSSNTPFTFGPGTVVDFRR

biological target: full length human PD-1 on HEK293/hPD-1 cells (human); assay: FACS, 100 nM antibody, HEK293/hPD-1 cells

Row | Binder | MFI [MFI]
1 | B1 | 24200
2 | B2 | 23700
3 | B3 | 4950
4 | B4 | 817
5 | B5 | 49800
6 | B6 | 23400

biological target: full length human PD-1 on HEK293/hPD-1 cells (human); assay: FACS dose response, HEK293/hPD-1 cells; EC50 Inconclusive

Row | Binder | Max Geom. Mean MFI @ 100 nM [MFI]
7 | B1 | 35600
8 | B7 | 15200

biological target: full length human PD-1 on HEK293/hPD-1 cells (human); assay: FACS, 100 nM antibody

Row | Binder | ratio of HEK293/hPD-1 to HEK293 parental cells [fold]
9 | B1 | 92.3
10 | B2 | 73.8
11 | B3 | 18
12 | B4 | 2.8
13 | B5 | 168
14 | B6 | 78.1

biological target: full length human PD-1 on HEK293/hPD-1 cells (human); assay: FACS dose response, HEK293/hPD-1 cells; No EC50 determined

Row | Binder | Max Geom. Mean MFI @ 100 nM [MFI]
15 | B3 | 1400
16 | B5 | 624

biological target: full length human PD-1 on HEK293/hPD-1 cells (human); assay: FACS dose response, HEK293/hPD-1 cells

Row | Binder | EC50 [nM] | Max Geom. Mean MFI @ 100 nM [MFI]
17 | B2 | 1.69 | 18400
18 | B5 | 4.81 | 14100
19 | B6 | 0.0698 | 20900
20 | B8 | 0.509 | 20300

— patent publication US20240382677A1
